± gives the uncertainty stated by the source.
Assay: self-splicing fitness, log relative to wild type (ln ratio); higher = more splicing; Tetrahymena group I intron in knt gene, E. coli kanamycin selection, DiMSum; sequences stand for … in CUCUCU…GGAGGGAAAAGUUAUCAGGCAUGCACCUGGUAGCUAGUCUUUAAACCAAUAGAUUGCAUCGGUUUAAAAGGCAAGACCGUCAAAUUGCGGGAAAGGGGUCAACAGCCGUUCAGUACCAAGUCUCAGGGGAAACUUUGAGAUGGCCUUGCAAAGGGUAUGGUAAUAAGCUGACGGACAUGGUCCUAACCACGCAGCCAAGUCCUAAGUCAACAGAUCUUCUGUUGAUAUGGAUGCAGUUCACAGACUAAAUGUCGGUCGGGGAAGAUGUAUUCUUCUCAUAAGAUAUAGUCGGACCUCUCCUUAAUGGGAGCUAGCGGAUGAAGUGAUGCAACACUGGAGCCGCUGGGAACUAAUUUGUAUGCGAAAGUAUAUUGAUUAGUUUUGGAGUACUCGUGGUCG
In short: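 A randomised library covering all eight P1ex-region intron nucleotides was built with the intron in the knt kanamycin-resistance gene on pET-22b(+) and held in E. coli BL21(DE3). Cells were grown overnight at 37°C or 30°C on LB agar, with or without 25 μg/mL kanamycin, plus 100 μg/mL carbenicillin, 50 μM IPTG and 0.2% rhamnose, and pooled colonies were amplicon-sequenced on an Illumina HiSeq 2500. DiMSum fitness is the error-weighted combination of wild-type-normalised replicate fold changes, kanamycin versus none.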

| Sequence | self-splicing fitness (ln) (30 °C) | self-splicing fitness (ln) (37 °C) |
| --- | --- | --- |
| ACCUAGCAAUAUUACGCACA | -0.931 ± 0.078 | -0.476 ± 0.079 |
| ACCUAGCAAUAUUACGCUAA | -2.61 ± 0.23 | -1.32 ± 0.16 |
| ACCUAGCAAUAUUACGGAAG | -2.8 ± 0.23 | -2.38 ± 0.19 |
| ACCUAGCAAUAUUACGGAGA | -1.83 ± 0.17 | -2.45 ± 0.2 |
| ACCUAGCAAUAUUACGGCCU | -0.404 ± 0.069 | -0.963 ± 0.075 |
| ACCUAGCAAUAUUACGGCGC | -0.607 ± 0.097 | 0.63 ± 0.13 |
| ACCUAGCAAUAUUACGGGAC | -1.87 ± 0.17 | -1.36 ± 0.18 |
| ACCUAGCAAUAUUACGGUGG | -4 ± 0.16 | -3.02 ± 0.15 |
| ACCUAGCAAUAUUACGUAAU | -1.28 ± 0.049 | -0.573 ± 0.066 |
| ACCUAGCAAUAUUACGUAUG | -2.71 ± 0.097 | -1.61 ± 0.099 |
| ACCUAGCAAUAUUACGUAUU | -1.84 ± 0.075 | -1.71 ± 0.11 |
| ACCUAGCAAUAUUACGUCAU | -2.11 ± 0.12 | -1.63 ± 0.12 |
| ACCUAGCAAUAUUACGUCUU | -0.806 ± 0.064 | -0.667 ± 0.075 |
| ACCUAGCAAUAUUACGUGUA | -2.84 ± 0.099 | -1.45 ± 0.075 |
| ACCUAGCAAUAUUACGUUCU | -1.08 ± 0.1 | -0.757 ± 0.1 |
| ACGAAGCAAUAUUACGACCU | 0.0549 ± 0.12 | 0.126 ± 0.13 |
| ACGAAGCAAUAUUACGACUU | -0.832 ± 0.058 | 0.00574 ± 0.081 |
| ACGAAGCAAUAUUACGAGAC | -2.39 ± 0.38 |  |
| ACGAAGCAAUAUUACGAUAU | -3.39 ± 0.14 | -2.03 ± 0.14 |
| ACGAAGCAAUAUUACGAUUU | -1.28 ± 0.094 | -0.317 ± 0.1 |
| ACGAAGCAAUAUUACGCCAG | -2.08 ± 0.19 | -1.72 ± 0.3 |
| ACGAAGCAAUAUUACGCCGU | -3.86 ± 0.37 | -1.57 ± 0.23 |
| ACGAAGCAAUAUUACGCCUU | -2.57 ± 0.14 | -0.89 ± 0.13 |
| ACGAAGCAAUAUUACGCGGA | -1.96 ± 0.17 | -1.33 ± 0.13 |

| Sequence | self-splicing fitness (ln) (30 °C) | self-splicing fitness (ln) (37 °C) |
| --- | --- | --- |
| ACGAAGCAAUAUUACGCGUG | -1.13 ± 0.051 | -0.442 ± 0.074 |
| ACGAAGCAAUAUUACGCUCA | -0.808 ± 0.11 | 0.223 ± 0.17 |
| ACGAAGCAAUAUUACGCUCG | -1.53 ± 0.14 | -1.17 ± 0.17 |
| ACGAAGCAAUAUUACGCUGU | -2.16 ± 0.13 | -0.576 ± 0.11 |
| ACGAAGCAAUAUUACGGCAG | -2.17 ± 0.13 | -1.58 ± 0.14 |
| ACGAAGCAAUAUUACGGCGA | -0.157 ± 0.087 | 0.0766 ± 0.12 |
| ACGAAGCAAUAUUACGGCGU | -2.47 ± 0.09 | -1.74 ± 0.11 |
| ACGAAGCAAUAUUACGGGAA | -3.09 ± 0.19 | -1.31 ± 0.13 |
| ACGAAGCAAUAUUACGUACU | -0.484 ± 0.064 | -0.0153 ± 0.089 |
| ACGAAGCAAUAUUACGUCCA | -0.408 ± 0.12 | -0.457 ± 0.13 |
| ACGAAGCAAUAUUACGUUGC | -3.45 ± 0.17 | -1.8 ± 0.16 |
| ACGCAGCAAUAUUACGAACC | -1.99 ± 0.16 | -0.986 ± 0.26 |
| ACGCAGCAAUAUUACGAAGC | -3.38 ± 0.24 | -1.6 ± 0.28 |
| ACGCAGCAAUAUUACGAAGG | -2.61 ± 0.13 | -1.3 ± 0.14 |
| ACGCAGCAAUAUUACGAGAU | -3.32 ± 0.14 | -2.68 ± 0.18 |
| ACGCAGCAAUAUUACGAGUA | -3.72 ± 0.33 | -3.07 ± 0.27 |
| ACGCAGCAAUAUUACGAUGU | -2.13 ± 0.057 | -1.16 ± 0.078 |
| ACGCAGCAAUAUUACGCAUU | -3.81 ± 0.19 | -1.89 ± 0.12 |
| ACGCAGCAAUAUUACGCCGC | -3.68 ± 0.29 | -2.42 ± 0.25 |
| ACGCAGCAAUAUUACGCCUU | -0.484 ± 0.082 | 0.1 ± 0.095 |
| ACGCAGCAAUAUUACGCGAC | -2.01 ± 0.15 | -2.24 ± 0.21 |
| ACGCAGCAAUAUUACGCGUC | -4.42 ± 0.17 | -2.18 ± 0.14 |
| ACGCAGCAAUAUUACGCGUU | -3.56 ± 0.14 | -2.42 ± 0.18 |
| ACGCAGCAAUAUUACGCUUU | -1.69 ± 0.079 | -1.15 ± 0.11 |

| Sequence | self-splicing fitness (ln) (30 °C) | self-splicing fitness (ln) (37 °C) |
| --- | --- | --- |
| ACGCAGCAAUAUUACGGCGA | -0.895 ± 0.1 | -0.0901 ± 0.14 |
| ACGCAGCAAUAUUACGGGGC | -3.8 ± 0.24 | -3.15 ± 0.28 |
| ACGCAGCAAUAUUACGGUCG | -0.525 ± 0.055 | -0.355 ± 0.072 |
| ACGCAGCAAUAUUACGUCAA | -3.09 ± 0.2 | -2.57 ± 0.15 |
| ACGCAGCAAUAUUACGUCAG | -2.75 ± 0.12 | -3 ± 0.19 |
| ACGCAGCAAUAUUACGUCUC | -3.88 ± 0.13 | -0.606 ± 0.084 |
| ACGGAGCAAUAUUACGACCU | -1.69 ± 0.2 | -1.34 ± 0.25 |
| ACGGAGCAAUAUUACGACGC | -1.26 ± 0.15 | -1.11 ± 0.17 |
| ACGGAGCAAUAUUACGAGAC | -0.64 ± 0.18 |  |
| ACGGAGCAAUAUUACGAUCU | -2.61 ± 0.14 | -1.37 ± 0.11 |
| ACGGAGCAAUAUUACGAUGC | -3.69 ± 0.43 | -1.74 ± 0.29 |
| ACGGAGCAAUAUUACGCAUU | -3.43 ± 0.43 | -2.85 ± 0.34 |
| ACGGAGCAAUAUUACGCGUU |  | -1.9 ± 0.21 |
| ACGGAGCAAUAUUACGCUCA | -1.04 ± 0.19 | -0.0662 ± 0.3 |
| ACGGAGCAAUAUUACGCUGG | -3.77 ± 0.29 | -1.2 ± 0.18 |
| ACGGAGCAAUAUUACGGAAU | -1.57 ± 0.39 | -2.5 ± 0.45 |
| ACGGAGCAAUAUUACGGAUA | -3.27 ± 0.33 | -2.61 ± 0.42 |
| ACGGAGCAAUAUUACGGAUG | -2.66 ± 0.31 | -1.17 ± 0.28 |
| ACGGAGCAAUAUUACGGCCU | -2.12 ± 0.17 | -1.2 ± 0.21 |
| ACGGAGCAAUAUUACGGUAA | -2.95 ± 0.49 | -3.1 ± 0.28 |
| ACGGAGCAAUAUUACGGUCA | -3.14 ± 0.3 | -1.35 ± 0.18 |
| ACGGAGCAAUAUUACGGUGU | -3.78 ± 0.2 | -2.35 ± 0.16 |
| ACGGAGCAAUAUUACGUAAA |  | -1.27 ± 0.35 |
| ACGGAGCAAUAUUACGUAGA | -4.18 ± 0.31 | -2.41 ± 0.24 |

| Sequence | self-splicing fitness (ln) (30 °C) | self-splicing fitness (ln) (37 °C) |
| --- | --- | --- |
| ACGGAGCAAUAUUACGUAGG | -3.48 ± 0.26 |  |
| ACGGAGCAAUAUUACGUAUA | -2.42 ± 0.18 | -1.86 ± 0.25 |
| ACGGAGCAAUAUUACGUGCG | -2.63 ± 0.17 | -1.79 ± 0.18 |
| ACGGAGCAAUAUUACGUUGG | -3.62 ± 0.23 | -2.05 ± 0.17 |
| ACGUAGCAAUAUUACGAAAU | -2.28 ± 0.19 | -1.3 ± 0.26 |
| ACGUAGCAAUAUUACGAACC | -1.44 ± 0.11 | -0.279 ± 0.15 |
| ACGUAGCAAUAUUACGACGA | 0.179 ± 0.11 | -0.0557 ± 0.12 |
| ACGUAGCAAUAUUACGAGAG | -2.93 ± 0.14 | -2.97 ± 0.23 |
| ACGUAGCAAUAUUACGAGGA | -2.78 ± 0.33 | -2.75 ± 0.38 |
| ACGUAGCAAUAUUACGCAAC | -2.74 ± 0.31 | -2.17 ± 0.35 |
| ACGUAGCAAUAUUACGCACU | -1.46 ± 0.18 | -0.549 ± 0.23 |
| ACGUAGCAAUAUUACGCCCC | -1.38 ± 0.27 | -1.28 ± 0.29 |
| ACGUAGCAAUAUUACGCCUU | -1.42 ± 0.064 | -0.00228 ± 0.076 |
| ACGUAGCAAUAUUACGCGCG | -1.28 ± 0.15 | -0.103 ± 0.18 |
| ACGUAGCAAUAUUACGCUCA | -0.72 ± 0.12 | 0.189 ± 0.11 |
| ACGUAGCAAUAUUACGGACA | -1.1 ± 0.083 | -0.739 ± 0.092 |
| ACGUAGCAAUAUUACGGCCC | -0.341 ± 0.15 | 0.0459 ± 0.25 |
| ACGUAGCAAUAUUACGGGAA | -1.95 ± 0.2 | -3.19 ± 0.37 |
| ACGUAGCAAUAUUACGGGGG | -3.84 ± 0.2 | -2.44 ± 0.16 |
| ACGUAGCAAUAUUACGGGUA | -1.29 ± 0.13 | -0.928 ± 0.12 |
| ACGUAGCAAUAUUACGGGUU | -3.54 ± 0.2 | -2.07 ± 0.21 |
| ACGUAGCAAUAUUACGGUUA | -0.772 ± 0.091 | -0.0368 ± 0.092 |
| ACGUAGCAAUAUUACGUCAG | -3.39 ± 0.18 | -2.34 ± 0.2 |
| ACGUAGCAAUAUUACGUGGG | -3.6 ± 0.16 | -3.07 ± 0.18 |

Source: the supplement of paper PMC7877785
